According to patent US7390643B2, “Geranyl diphosphate synthase molecules, and nucleic acid molecules encoding same” (Washington State University Research Foundation, priority 2002, dated 2008):
“Also recorded” adds a separate entry of the source.

B1: GGPPS: recombinant geranylgeranyl diphosphate synthase from grand fir, truncated, His6-tagged, SEQ ID NO:26 (protein)
chain: MFDFKEYLRSKAMAVNEALDRAVPLRYPERIHEAMRYSLLAGGKRVRPVLCISACELVGGTEEVAMPTACAMEMIHTMSLIHDDLPCMDNDDFRRGKPTNHKVFGEGTAILAGDALLSFAFEHIAVSTSKSVGTDRILRVVSELGRTIGSQGLVGGQVADITSEGDASVDLDTLEWIHIHKTAVLLECSVMCGAIISGASDNEIERIQRYARSVGLLFQVVDDILDVTKSSKELGKTAGKDLISDKATYPKLMGLEKAKQFASDLLIRAKEDLSCFDPMKAAPLLGLADYIAFRQNLEHHHHHH
modifications: His6 tag; Abies Grandis
B2: AgGPPS3: recombinant geranyl diphosphate synthase from Grand fir (Abies grandis), truncated, His6-tagged, SEQ ID NO:20 (protein)
chain: MFDFNKYMLSKAMAVTEALDKAIPHSYPQKIHESMRYSLLAGGKRVRPVLCIAACELVGGREELAMPTACAMEMIHTMSLIHDDLPCMDNDDLRRGKPTNHKVFGQDTALLAGDALHAFAFEHIVAFTSKSVGSDGILRAVTELARATGPQGIMGGQIVDIASERDAFVDLQTLEWIHIHKTAVLFECATVCGAIIGGASGDEIERIRRFARYLGLLFQVVDDILDVTKSSEDLGKTAGKDLVSDKATYPKLMGLEKAKGFSLELLNKAKEELSCFDPMKAAPLFGLADYMALRQNLEHHHHHH
modifications: His6 tag; Abies Grandis
B3: AgGPPS2: recombinant geranyl diphosphate synthase from Grand fir (Abies grandis), truncated, His6-tagged, SEQ ID NO:12 (protein)
chain: MFDFNKYMDSKAMTVNEALNKAIPLRYPQKIYESMRYSLLAGGKRVRPVLCIAACELVGGTEELAIPTACAIEMIHTMSLMHDDLPCIDNDDLRRGKPTNHKIFGEDTAVTAGNALHSYAFEHIAVSTSKTVGADRILRMVSELGRATGSEGVMGGQMVDIASEGDPSIDLQTLEWIHIHKTAMLLECSVVCGAIIGGASEIVIERARRYARCVGLLFQVVDDILDVTKSSDELGKTAGKDLISDKATYPKLMGLEKAKEFSDELLNRAKGELSCFDPVKAAPLLGLADYVAFRQNLEHHHHHH
modifications: His6 tag; Abies Grandis
B4: AgGPPS1: recombinant geranyl diphosphate synthase from Grand fir (Abies grandis), truncated, His6-tagged, SEQ ID NO:16 (protein)
chain: MFDFKEYLHSKAISVNEALERAVPLRYPEKIHEAMRYSLLAGGKRIRPILTIAACELVGGSEELAMPTACAMEMIHTMSLIHDDLPSMDNDDLRRGKLTNHKVFGEGTAVLAGDALLSFAFEHIAVSTRKTVASHRVLRVVSELGKAIGSQGVAGGQVADITSEGDPSVGLETLEWIHIHKTAVLLECAVVSGAIIGGASENEIERTGRYARCVGLLFQVVDDILDVTRSSEELGKTAGKDLVSDKATYPKLMGLEKAKEFADELLDRAKEELSCFNPAKAAPLLGLADYIALRQNLEHHHHHH
modifications: His6 tag; Abies Grandis

Experiments:
[1] = test system: presumptive prenyltransferases (GPP synthases and GGPP synthase) from grand fir; assay: Product determination and co-substrate selectivity assay ([4-14C]IPP plus allylic co-substrate, MgCl2; radio-GC of hydrolysed products); assay type: biochemical, Abies grandis; conditions: for product formed: radio-GC; for rate with GPP as allylic co-substrate in the production of FPP, relative to the rate with DMAPP: standard assay conditions
From the text: Protein purification and product determination. The affinity-based purification procedure for His-tagged proteins has been described previously, as has the standard purification protocol for the corresponding non-tagged proteins (C. Burke and R. Croteau, J. Biol. Chem.277:3141-3149, 2002). The partial purification procedure for the native GPP synthase from A. grandis has also been reported previously (D. Tholl et al., Arch. Biochem. Biophys. 386:233-242, 2001). Procedures for polyclonal antibody preparation were as described previously (C. C. Burke et al., Proc. Natl. Acad. Sci. USA 96:13062-13067, 1999), in this case using the SDS-PAGE purified AgGPPS3 protein (SEQ ID NO:7) as antigen. The assay procedures and methods for product analysis were similar to those previously described (C. Burke and R. Croteau, J. Biol. Chem. 277:3141-3149, 2002), except that for radio-GC a Raga (Raytest) radio-detector connected in-line to a Series 600 (Gow-Mac) chromatograph was employed with a 5% phenyl polysiloxane (ZB-5; Phenomenex) capillary column under hydrogen gas flow (70° C. for 5 min. followed by an 8° C. per min. ramp to 240° C. for 5 min).
As might be expected based on prior experience, the full-length (preprotein) versions of these enzymes (SEQ ID NOS:3, 5, 7 and 22) were not efficiently expressed in soluble form and the bulk of the protein generated was in inclusion bodies. However, the truncated versions of these enzymes with the appended C-terminal His6-tag (SEQ ID NOS:12, 16, 20 and 26) readily afforded soluble protein that was affinity purified to >90% in amounts up to 6 mg/L. To define the function of these presumptive prenyltransferases, assays were conducted with the purified proteins (SEQ ID NOS:12, 16, 20 and 26) using [4-^14C]IPP and DMAPP as co-substrates and MgCl2 as cofactor. The resulting products were enzymatically hydrolyzed to the corresponding alcohols and analyzed by radio-GC. […] His-tagged AgGPPS1 (SEQ ID NO:16) and AgGPPS3 (SEQ ID NO:20) were able to accept GPP as the allylic co-substrate (110% the rate with DMAPP under standard assay conditions) in the production of FPP, and His-tagged AgGPPS3 (SEQ ID NO:20) could also efficiently utilize FPP as allylic co-substrate in the formation of GGPP (at about 50% the rate with DMAPP as co-substrate).

[2] = test system: recombinant GPP synthases from grand fir; assay: Kinetic evaluation, standard prenyltransferase assay with purified recombinant His6-tagged GPP synthases; assay type: biochemical, Abies grandis
Description: Molecular weight determination and kinetic evaluation. The molecular weight of GPP synthase was determined by gel filtration chromatography on a calibrated XK 16/70 column of Superdex 200 (Amersham Biosciences) as previously described (C. Burke and R. Croteau, J. Biol. Chem. 277:3141-3149, 2002). For kinetic evaluation, the standard prenyltransferase assay was performed (C. Burke and R. Croteau, J. Biol. Chem. 277:3141-3149, 2002) but the reaction was terminated after 4 min. to ensure linearity in the rate measurements. For preparative incubations, the reaction time was extended to 8 min., and all assays contained from 0.25 to 1.0 μg of purified protein.
Kinetic characterization of the GPP synthases (SEQ ID NOS:12, 16, and 20). To compare substrate binding behavior and turnover rates of these grand fir GPP synthases (SEQ ID NOS:12, 16, and 20) to those of the Mentha synthase, kinetic constants were determined (Table 1).

[3] = [4-14C]IPP and DMAPP as co-substrates, MgCl2 as cofactor

Molecule | product formed [1, 3] | rate with FPP as allylic co-substrate in the formation of GGPP, relative to the rate with DMAPP [1] | farnesyl diphosphate produced [1, 3] | rate with GPP as allylic co-substrate in the production of FPP, relative to the rate with DMAPP [1] | turnover rate compared with AgGPPS3 [2] | turnover rate compared with the heterotetrameric Mentha GPP synthase [2] | allylic co-substrate utilised [1] | KM(DMAPP) compared with the Mentha enzyme [2]
B1 | predominately geranylgeranyl diphosphate as product with trace amounts of geranyl diphosphate |  |  |  |  |  |  | 
B2 | geranyl diphosphate as the major product | about 50% | about 30% | 110% |  |  |  | 
B3 | geranyl diphosphate as the major product; also recorded: only GPP |  |  |  | four fold higher | three-fold lower | only DMAPP | 
B4 | geranyl diphosphate as the major product |  |  | 110% | four fold higher |  |  | two-fold higher
